Measurements as given in patent publication US20060002951.

Columns and labels:
[1] = molecular target: wild-type HIV-1 Gag expressed from the hGag plasmid
[2] = molecular target: HIV-1 Vif (virion infectivity factor)
[3] = molecular target: Gag of HIV-1 BH10 expressed from BH10.P-.Vif- or BH10.FS-.Vif- proviral DNA, P03347
[4] = molecular target: mutant Gag of ZWt-p6.Vif-, in which the nucleocapsid sequence has been replaced with a yeast leucine zipper domain

B1: HA-tagged APOBEC3G deletion mutant Δ1-104 (protein)
chain: MATFLAEDPKVTLTIFVARLYYFWDPDYQEALRSLCQKRDGPRATMKIMNYDEFQHCWSKFVYSQRELFEPWNNLPKYYILLHIMLGEILRHSMDPPTFTFNFNNEPWVRGRHETYLCYEVERMHNDTWVLLNQRRGFLCNQAPHKHGFLEGRHAELCFLDVIPFWKLDLDQDYRVTCFTSWSPCFSCAQEMAKFISKNKHVSLCIFTARIYDDQGRCQEGLRTLAEAGAKISIMTYSEFKHCWDTFVDHQGCPFQPWDGLDEHSQDLSGRLRAILQNQEN
incorporation into Gag VLPs (APOBEC3G:Gag ratio, Western blot) [1]: deletion of the N-terminal 104 amino acids or the C-terminal 157-384 amino acids (See SEQ ID NO: 21) does not affect the ability of APOBEC3G to be packaged into Gag VLPs

B2: HA-tagged APOBEC3G deletion mutant Δ157-384 (protein)
chain: MKPHFRNTVERMYRDTFSYNFYNRPILSRRNTVWLCYEVKTKGPSRPPLDAKIFRGQVYSELKYHPEMRFFHWFSKWRKLHRDQEYEVTWYISWSPCTKCTRDMATFLAEDPKVTLTIFVARLYYFWDPDYQEALRSLCQKRDGPRATMKIMNYDE
incorporation into Gag VLPs (APOBEC3G:Gag ratio, Western blot) [1]: deletion of the N-terminal 104 amino acids or the C-terminal 157-384 amino acids (See SEQ ID NO: 21) does not affect the ability of APOBEC3G to be packaged into Gag VLPs
viral content relative to wild type APOBEC3G (Gag VLPs, Western blot) [1]: the viral content of these N-terminal fragments is >60% of wild type APOBEC3G
cytoplasmic expression of full-length hA3G in the presence of Vif (Western blot with anti-HA) [2]: an increase in the cytoplasmic expression of full-length hA3G was detected with an increase in expression of hA3G 1-156 or hA3G 157-384, respectively

B3: wild-type human APOBEC3G with a fused HA tag at the C-terminus (protein)
chain: MKPHFRNTVERMYRDTFSYNFYNRPILSRRNTVWLCYEVKTKGPSRPPLDAKIFRGQVYSELKYHPEMRFFHWFSKWRKLHRDQEYEVTWYISWSPCTKCTRDMATFLAEDPKVTLTIFVARLYYFWDPDYQEALRSLCQKRDGPRATMKIMNYDEFQHCWSKFVYSQRELFEPWNNLPKYYILLHIMLGEILRHSMDPPTFTFNFNNEPWVRGRHETYLCYEVERMHNDTWVLLNQRRGFLCNQAPHKHGFLEGRHAELCFLDVIPFWKLDLDQDYRVTCFTSWSPCFSCAQEMAKFISKNKHVSLCIFTARIYDDQGRCQEGLRTLAEAGAKISIMTYSEFKHCWDTFVDHQGCPFQPWDGLDEHSQDLSGRLRAILQNQEN
incorporation of APOBEC3G into Gag VLPs (Western blot of VLP lysates) [1]: Gag alone is sufficient among the viral proteins for facilitating APOBEC3G incorporation
share of APOBEC3G in the membrane-bound fraction (sucrose floatation assay) [1]: in the presence of Gag (FIG. 5B), >90% of APOBEC3G is localized in the membrane-bound protein
ability of the viruses to package APOBEC3G (Western blots of viral lysates) [3]: BH10.FS-.Vif- can package APOBEC3G as efficiently as BH10.P-
ability of the viruses to package APOBEC3G (Western blots of viral lysates) [4]: the ability of ZWt-p6.Vif- to incorporate APOBEC3G is reduced 90% compared with BH10.FS-.Vif-
distribution of APOBEC3G between cytoplasm and membrane (sucrose floatation assay) [4]: the majority of APOBEC3G remains in the cytoplasm even though most Gag is found at membrane

B4: HA-tagged APOBEC3G deletion mutant Δ309-384 (protein)
chain: MKPHFRNTVERMYRDTFSYNFYNRPILSRRNTVWLCYEVKTKGPSRPPLDAKIFRGQVYSELKYHPEMRFFHWFSKWRKLHRDQEYEVTWYISWSPCTKCTRDMATFLAEDPKVTLTIFVARLYYFWDPDYQEALRSLCQKRDGPRATMKIMNYDEFQHCWSKFVYSQRELFEPWNNLPKYYILLHIMLGEILRHSMDPPTFTFNFNNEPWVRGRHETYLCYEVERMHNDTWVLLNQRRGFLCNQAPHKHGFLEGRHAELCFLDVIPFWKLDLDQDYRVTCFTSWSPCFSCAQEMAKFISKNKHVSLC
viral content relative to wild type APOBEC3G (Gag VLPs, Western blot) [1]: the viral content of these N-terminal fragments is >60% of wild type APOBEC3G

B5: HA-tagged APOBEC3G deletion mutant Δ246-384 (protein)
chain: MKPHFRNTVERMYRDTFSYNFYNRPILSRRNTVWLCYEVKTKGPSRPPLDAKIFRGQVYSELKYHPEMRFFHWFSKWRKLHRDQEYEVTWYISWSPCTKCTRDMATFLAEDPKVTLTIFVARLYYFWDPDYQEALRSLCQKRDGPRATMKIMNYDEFQHCWSKFVYSQRELFEPWNNLPKYYILLHIMLGEILRHSMDPPTFTFNFNNEPWVRGRHETYLCYEVERMHNDTWVLLNQRRGFLCNQ
viral content relative to wild type APOBEC3G (Gag VLPs, Western blot) [1]: the viral content of these N-terminal fragments is >60% of wild type APOBEC3G

B6: HA-tagged APOBEC3G deletion mutant Δ1-156 (protein)
chain: MFQHCWSKFVYSQRELFEPWNNLPKYYILLHIMLGEILRHSMDPPTFTFNFNNEPWVRGRHETYLCYEVERMHNDTWVLLNQRRGFLCNQAPHKHGFLEGRHAELCFLDVIPFWKLDLDQDYRVTCFTSWSPCFSCAQEMAKFISKNKHVSLCIFTARIYDDQGRCQEGLRTLAEAGAKISIMTYSEFKHCWDTFVDHQGCPFQPWDGLDEHSQDLSGRLRAILQNQEN
incorporation into Gag VLPs (APOBEC3G:Gag ratio, Western blot) [1]: the deletion of the N-terminal 156 amino acids abolishes its incorporation into viruses
reduction in the ability to be degraded by Vif (ratio of expression with and without Vif, Western blot) [2]: the deletion of the N-terminal 156 or C-terminal 157-384 amino acids results in 80% and 90% reduction in the ability of the resulting fragments to be degraded by Vif, respectively
